In the data set the test system is Saccharomyces cerevisiae. Description: transcriptional activation domain activity (GFP:mCherry ratio, weighted mean of sorted bins, harmonized to initial dataset scale) (arbitrary fluorescence ratio units); higher = stronger transcriptional activation. Conditions: beta-estradiol 1 µM; induction time 4 h. The essentials:
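Sorting into 8 bins by GFP:mCherry ratio followed a 4-hour hold at 30 °C after cultures were diluted 1:5 into SC with 1 uM beta-estradiol. The yeast diploids carried a GFP reporter and had barcoded protein tiles, fused to an estradiol-inducible synthetic transcription factor, integrated at URA3. Barcodes were then sequenced, and tiles with under 50 reads were removed. Activation activity is the read-weighted mean of bin median fluorescence, averaged across barcodes and linearly mapped onto the initial dataset scale.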

As for “KKGGKAAKSADRPPSRSRLEEEYVFIDVVSSFLRAIRARVIHIRHGAIVLAHY”, the “transcriptional activation domain activity” value worked out at 64100.

Regarding “LSLLSLCLGILHSSFKTCFVLLFVLIHICICTLFLIFSFFTPLLTIPTYVTLS”, the “transcriptional activation domain activity” value worked out at 57500.

Turning to “ESAKDKENAKGRKEAEKKKNKEEKERVKKESRERERESRRSAEGRKRPALASL”, the “transcriptional activation domain activity” value was 25400.

On to “YLAYCWQPDISWCPNLTLLNHWYNLTPYWFILMFIWNNLSCILMMINMIQLYF”, for which the “transcriptional activation domain activity” value stood at 67800.

On to “WFRDMRFPYVPRAFSRLLKNLLVAVYVSLFNSCIFWFTSSRLHPQRRFIARYL”, for which the “transcriptional activation domain activity” value is 64800.

In the case of “AILLFIELASMGGFTWHLLSGLFFGDVCLIYMDLDDTLFFLFVLVALFSQSFV”, the “transcriptional activation domain activity” value is 46700.

Consider “RAMYAPGFVELTLSYGTGGVTLYARYRSMIDALLKRPHATAFIFAGGYLSWLA”, for which the “transcriptional activation domain activity” value came to 52600.

Take “LTPSSEQVIPACSTRTSTARASAGPSTKGAASRPSSSVSTRSRAPTPSSKKSC”: the “transcriptional activation domain activity” value came out at 29300.

For “NLQKIISYLLPAGSWSEDWPIILNVFFGCPLPLSSFLMVIICCFTDLFCCLTL”, the “transcriptional activation domain activity” value was 47100.

Take “LRAMVMAAPYDGDINITFTKHRSKIYIRPNNTLSELLSNGWIKFLAIILFIYP”: the “transcriptional activation domain activity” value stood at 36600.

Regarding “MLCDATSGLWILLCFFFFCVVLFVLIVSVFSTLPMWMSYSFFFLFVGFDLLLS”, the “transcriptional activation domain activity” value came to 35600.

Turning to “TTKPKEASKPKEDPKPRSKSPVKKEETKVEKPKEDPPKAEAKSIPATTAAAAV”, the “transcriptional activation domain activity” value is 59300.

For “PVKPASKKPAEKAKEKAKEAPKEKAKAKEPAKAKEDKPKAKPASKKAAAKPAA”, the “transcriptional activation domain activity” value was determined as 34700.

On to “MWTFGMIQLYYSPYWGDTRWFWLDYPKTLLSPTFKWYYLIQFAFWLQQLLLAL”, for which the “transcriptional activation domain activity” value came to 73400.

On to “CNVLFYLELVRALVLLHRWDLNTWMLQYSTKTMPPIQPTPLDDFVKYITTFPG”, for which the “transcriptional activation domain activity” value is 42800.

Consider “EKGNKRNDEEKGRGGEGRSTGRERREAKNGSAEGEGRERKQRRDGGEAGEGGT”, for which the “transcriptional activation domain activity” value stood at 45400.

For the sequence “MSPRAFFPPWFDFVHAFLVYALVARRLRLLFLPTHLAMHCTHLSLSLTLLFLL”, the “transcriptional activation domain activity” value came out at 60500.

In the case of “MWTSLGCYSCLLCLLLHVVYVPSLLVPSQHPFLSSCLGAVGLTFTWMICCFFP”, the “transcriptional activation domain activity” value is 56500.

With “AFEVSGKGRSRTREKVTLDLEELAGGAIDMSKSDLEHLVIHLFIKSYLRMSFV”, the “transcriptional activation domain activity” value was 43100.

Consider “DRRYRISRGGSRMNQVVENTVSRWVGMLPTWRCGLLLHAFVHLKKVYWCPFLR”, for which the “transcriptional activation domain activity” value came to 72700.

On to “EVYFGLVNRRFRELLLVHERCFDLKVPNYRLMSILLAYLLRHTMVTPKVKYPE”, for which the “transcriptional activation domain activity” value came out at 29700.

“EDRHSSKRRRERSRSPVRDTRRRSRSPAARGKNDEDRRDRRRSSSRERDRRRG”: the “transcriptional activation domain activity” value came out at 32600.

Regarding “YVILVAVSIFTTTYVMLTSLPVLFQQCPFQTPLSSIIWYLGHFLVIAFLSLFS”, the “transcriptional activation domain activity” value was 62600.

In the case of “GKKGSSGAKKGGKKGSSTGAKEEVAKKPSIEKSGEKKSEGGEKKENDEKKNDK”, the “transcriptional activation domain activity” value was found to be 37900.

Consider “MLSHLVVSTPHCSIMFGPSMDWTRVFAFFLLLRFSLHWISNNCFVSPLLLLCY”, for which the “transcriptional activation domain activity” value was 69800.

With “CLFFFSLFSLFILIFLSFLFFPPTSCFPSLYFLFYLSHFLLSFSFLYLYRYRF”, the “transcriptional activation domain activity” value amounted to 39500.

“VKPEAKAEHIKENTKPKPLGTKRANKAAEAPAPAAKKPVKKAAVPKKAAAAPA”: the “transcriptional activation domain activity” value worked out at 59600.

In the case of “VFVPIPGLRNRRVHILLPNLYLLHQITFFRFSRRRSTLVLLLVCVSIVFAMYA”, the “transcriptional activation domain activity” value was 36500.

Regarding “EGDRKGRGRGRGRDDRGPRDRNREREDRDEKNDKKRAREEGNDEKPAKNADSK”, the “transcriptional activation domain activity” value worked out at 54500.

“AGNGWLLVGWFILHHFVVVSGILVAMLCLSFWDLWGSPGSPLLSRPWVAACFA”: the “transcriptional activation domain activity” value was 50500.

As to “APPPREGGARGGRGGRGRGEFRGGEGRGRGEGRESRGGEGRGRGGEGRGEFRG”, the “transcriptional activation domain activity” value stood at 25900.

On to “YMIGLLFRTYFKLKSLNLCKNVLRAVSVSELPSLSEFPKAHQVTFRYYTGVLS”, for which the “transcriptional activation domain activity” value came out at 70100.

“SIHLPKKITICTYIGTYYAIGAAWGFVLMNYFLTGWYFGLYDKYYIDSFGIYV”: the “transcriptional activation domain activity” value came out at 76000.

As to “ARGGEKKRREPGRGKRRTGGEERGGRRKTRRANAGETGGERRPRGATPGRKPA”, the “transcriptional activation domain activity” value amounted to 38500.

For the sequence “FKEGVSLTVLDELYRWQKYAYGCDEIIFNPIFTWWKKGPISLQLRNFVWSIAP”, the “transcriptional activation domain activity” value turned out to be 57100.

As to “METATPPQPKKGRRGNPKTRTGCVTCKMRRVKCDEAKPQCKRCISTGRTCDGY”, the “transcriptional activation domain activity” value was 15500.

For the sequence “WSILYLLCEVYARLLLTLSDDEFLSHAGNPLSLKQVIELTRQLKNLSFVLFWR”, the “transcriptional activation domain activity” value was 70700.

In the case of “LNTFLDSFIFQLFPMVADLWIAAAYFFLYFDAFYSLIIIATTWLYIYITIYMA”, the “transcriptional activation domain activity” value was determined as 58800.

Consider “KSKKRKTGEQSDEDAVAAKKRKKSAGKKVAGEEKPKKARKSQAPAEAAGGRKS”, for which the “transcriptional activation domain activity” value is 16500.

For “MVDSRMLGETETGLFLSFIFFRIIFILVLPYLASCSKYVHLLFLYCFLLLRFF”, the “transcriptional activation domain activity” value is 54600.

Turning to “FGASLPVFWKVIFHHCQLYFLVIVSTKAILVFTIYALEFPYSVMFIICHLVLV”, the “transcriptional activation domain activity” value was 37700.

As for “SEAVDFEVPDDFVVSWTGDLLPHTIIYCDFPPPMSVALFEPQPSDMDFDWFWI”, the “transcriptional activation domain activity” value was found to be 71600.

In the case of “DIETLLVYDYYPKPLLDIDLTIRGRHIYLPIEKTWLRYVPKPPWYLLVLLFAG”, the “transcriptional activation domain activity” value was determined as 60500.

For “VALATWVIVIAVLLPTIFLIGFIESYCWFRRMMLGRSALRLGTICWCVMSLWF”, the “transcriptional activation domain activity” value came out at 65100.

Turning to “KRREKRKKRKQRDQGRKKTKKDGVGEPSNEGGEDDNGESGKDDDDQGKESDKD”, the “transcriptional activation domain activity” value was 29600.

As for “FVNLPYYPHVHLSSFFFFCFSLSIFVLSFRFVHLIPFPSYLLCLSVRLFFGLL”, the “transcriptional activation domain activity” value came to 25600.

As for “MEQTNKEDSGSDTQACPICDAPAVNRCSRCASVYYCSQEHQKEVRYESPSNAL”, the “transcriptional activation domain activity” value turned out to be 49900.

For “MLIQSQPQPPPTKHTPLYFIPHFILLLLLALSPSLTLLTLSFFYLFLFCYLLV”, the “transcriptional activation domain activity” value was found to be 20900.

In the case of “PESINYVLEQGSLLSRFTYRFVIFICKLARINQPTYRLLIRFGLLDMILRICV”, the “transcriptional activation domain activity” value was determined as 87400.

Take “MSLFSILYFYYTICFICFLTFLTIKDLHIYLLLKFQITIFLFCYFFVCFLSPL”: the “transcriptional activation domain activity” value came out at 76600.

On to “QVKGNAATLVVRSLALNADLCKLVECLWFLDRYVLVEGKHWAAALPRMKNLWF”, for which the “transcriptional activation domain activity” value turned out to be 32200.

In the case of “YLVMVYAWILWLSLVVLLALIAFYLFMVIWNIDRGTPSPVCLVVFCMQFICTL”, the “transcriptional activation domain activity” value is 44200.

In the case of “ICFSPPLISCGGFFPSDLLPFLFHSFSFYFLTCWLPVYFLPPLFVACFFICLP”, the “transcriptional activation domain activity” value worked out at 60100.

Consider “SGADEFDVGASIEPTFATPRLTRTSETGTSESTSRRPSERSRSRARVLGLPVG”, for which the “transcriptional activation domain activity” value came out at 38500.

As for “MQCIFVHILLVFIINTFYLVHRLFSSSFLSSFTLFCFLYTHYSFLFFRLIHIS”, the “transcriptional activation domain activity” value amounted to 69500.

Regarding “VACAVLIAVSIFATIYVVLTSLPVIFQQCPFQTPLSSIIWYLGHLLVIASLSL”, the “transcriptional activation domain activity” value came out at 28400.

As to “MLSVSLSFPFLLFFFSVSIFLLLLLLFSVSFILLLSLFFCSSFSFFNSFMVFF”, the “transcriptional activation domain activity” value was 43100.

“EEDNHSGDDNEDDHDSSGVDDDHGGGGDEDDGDGGEGDGGDVMQLYFIHNIIL”: the “transcriptional activation domain activity” value was found to be 37400.

For “KKEKAEKNKQQSKGQGQGEGDKEQKKEGEGEGEGGKDARAKGEKDGKDEKGAK”, the “transcriptional activation domain activity” value stood at 46400.

As for “MNLVSLAAVCLFYFFSPTLFFVPSLCSHGHLFTYGHFLLLLCSLILPWTCFRL”, the “transcriptional activation domain activity” value worked out at 72000.

Consider “PPPHLQLIYSCKAVRSSIQIFFDRAFIFKCSSSLWVCIVMFSRWLRTIRLFVW”, for which the “transcriptional activation domain activity” value is 85600.

As for “IKPEIMGLLEIHRSIAQDIGVSLLTELINPNVSIGKMLRNCITVFTLINTLRH”, the “transcriptional activation domain activity” value turned out to be 77500.

On to “KAVFKALPILVVASVGCASTNLLIRTVIIWRKEHLVISVLLLLYVGHWTILFV”, for which the “transcriptional activation domain activity” value worked out at 32100.

On to “MWGRWVGWSLIFLELYLDHLILQFIPPTRFIVTLFFFFSFLFIWYFCLLSLSL”, for which the “transcriptional activation domain activity” value was 28800.

Turning to “YNIRAKGFNIFNITISVALVFNQYVNPIALAALTWKYYVVYCVWLVCECIFLY”, the “transcriptional activation domain activity” value is 60100.

Consider “MLLFSKLYYEAVGVGCLSYFDFQSLQVWVLDICASWYFVLAFNSYFVVSLFFG”, for which the “transcriptional activation domain activity” value is 36200.

For “TIMYGVRFVVVLLTMEIMIHFMYMVAIFHAKPDWSAYTPFQLSMLGYFNLNHI”, the “transcriptional activation domain activity” value turned out to be 46200.

For “IRYWLLTFFVMDFLPNRELRLLLASWLNTLVNDPILKKHQDGLSIVRKLIKVA”, the “transcriptional activation domain activity” value turned out to be 51600.

Take “EQEVQEERARTGTKGRKRALDDDAAKEEKEEKKEKPEKKEKATKSGKATSAAS”: the “transcriptional activation domain activity” value was determined as 20800.

On to “EQDSWNAQLDFFNHIFYTQLYPAYDLPKKLQEDTELETEQENQMLNQVGNINY”, for which the “transcriptional activation domain activity” value stood at 109000.

As for “SSKHDYKRSRRSKTKDEDDDDDDEDRKRRKRRKEREHSKKKEKEERRSVLTGK”, the “transcriptional activation domain activity” value worked out at 30300.

With “MVWGCAFFISSQFLFPWLLWVFPLSLLSLGLSHTLELDSVFSLLLIFFTIPLF”, the “transcriptional activation domain activity” value came to 34500.

“EIPIQLGCIHLHSLWMTYALLYQLIYPMMMIYNLVNCIYFGSGLQIAWWMFSI”: the “transcriptional activation domain activity” value is 44200.

With “IEDSRRVDRGDEDKGREDHTRHRRRGSTDTGRRDERSHRDRRRSRSRSPASRR”, the “transcriptional activation domain activity” value is 21900.

These data come from the supplement of paper PMC12636428.
